33 sequences from patent US20250163410 can be followed below.

The subject of the data set is VchCAST TnsB transposase (Tn6677; assayed with TnsA-TnsC and TniQ-Cascade) (Vibrio cholerae). In words: cell_activity. To be noted: for binding signal: no IPTG.

As for “ACATTTGGTGATACAACCATAAAATGATAATTACACCCATAAATTGATAATTATCACACCCATAAATTGATATTGCCTCTGATCATAGTCAGACCAACATTGCTACGACCCGTATTCGCACCGACAC (double strand) [Right end variant 1063]”, the binding signal (log2 fold vs WT) (T-RL, second replicate -5.3052) was -6.47.
As for “ACATTTGTTGATACAACCATAAAATGATAATTATACCCATAAATTGATAATTATCACACCCATAAATTGATATTGCCTCTGATCATAGTCAGACCAACATTGCTACGACCCGTATTCGCACCGACAC (double strand) [Right end variant 985]”, the binding signal (log2 fold vs WT) (T-RL, second replicate -1.2264) is -1.42.
For the sequence “AATGTTGTTGATGCAACCATAAAGTGATATTTACGAATCAATTAAAATCATAGGCTTAATCGAAAAACAACCATATATTGATATCTCATAAAACAACCATAAGTTGATATTTTGGTGAAAAGGATATTCCAACCTTCATAGTTTAGTAAGAA (double strand) [Left end hyperactive 4666]”, under “T-RL”, the binding signal came out at 2.58 fold vs WT.
As for “TGTGGATACAACCATAAAATGATAATTACACCCATAAATGGATCATTATCACCCCCA (double strand) [Right end ORF1a]”, the binding signal (log2 fold vs WT) (T-RL integration, second replicate -1.08) was -1.47.
“ACATTCGTTGATACAACCATAAAATGATAATTACACCCATAAATTGATAATTATCACACCCATAAATTGATATTGCCTCTGATCATAGTCAGACCAACATTGCTACGACCCGTATTCGCACCGACAC (double strand) [Right end variant 1070]”: the binding signal (log2 fold vs WT) (T-RL, second replicate) was -1.95.
Consider “ACATTTGTTGATACAACCATAAAATGATAATTACACCCATAAATTGATAATTATCACACCCATACCTTGATATTGCCTCTGATCATAGTCAGACCAACATTGCTACGACCCGTATTCGCACCGACAC (double strand) [Right end variant 1100]”, for which the binding signal (log2 fold vs WT) (T-RL, second replicate 1.4027) amounted to 1.3.
Regarding “AATGTTGTTGATGCAACCATAAAGTGATATTTAATAATTATTTATAATCAGCAACTTAACCACAAAACAACCAGATATTGATATCTCACAAAACAACCATAAGTTGATATTTTTGTGAATCGAGTATTTCAGCAAAACTACTGCAGTAAGAA (double strand) [Left end variant 3260]”, the binding signal (log2 fold vs WT) (T-RL, second replicate -0.7874) was -1.91.
Consider “ACATTTGTTGATACAACCATAAAATGATAATTACACCCATAAATTGATAATTATCACACCCATAAATTGATATTGCCTCTCAGACCACATAGCTGCCATGTCCTGATCGGACGGACCGCACCGACAC (double strand) [Right end hyperactive 2701]”, for which, for the setting “T-RL”, the binding signal was 1.7 fold vs WT.
For the sequence “TGTTGATACAACCATTAAATGATAATTCCACCCATAATTTGATAATTATCACACCCA (double strand) [Right end ORF3b]”, under “T-RL, second replicate -0.65”, the binding signal (log2 fold vs WT) is -0.84.
“TGTTGATACAACCATAAAAGGATTATTACACCCATTAATTGATAATTATCACACCCA (double strand) [Right end ORF2a]”: the binding signal (log2 fold vs WT) (T-RL, second replicate -1.82) is -2.22.
In the case of “AATGTTGTTGATGCAACCATAAAGTGATATTTAATAATTATTTATAATCAGCAACTTAACCTCAAAACAACCATATATTGATATCTCACAAAACAACCATAAGTTGATATTTTTGTGAATCGAGTATTTCAGCAAAACTACTGCAGTAAGAA (double strand) [Left end variant 3295]”, the binding signal (log2 fold vs WT) (T-RL, second replicate 1.3754) amounted to 0.963.
With “AATGTTGTTGATGCAACCATAAAGTGATATTTAATAATTATTTATAATCAGCAACTTAACCACAAAACAACCATATATTGATATCTCACAAAACACCCATAAGTTGATATTTTTGTGAATCGAGTATTTCAGCAAAACTACTGCAGTAAGAA (double strand) [Left end variant 3195]”, where the note is “T-RL, second replicate 0.7256”, the binding signal (log2 fold vs WT) worked out at 0.722.
Regarding “TGTTGATACAACCATCAAATGGTAATTACACCCATAAATTGATAATTATCACACCCA (double strand) [Right end ORF3a]”, the binding signal (log2 fold vs WT) (T-RL, second replicate -0.05) was -0.64.
As to “TTTTGTGTTGATGCAACCATAAAGTGATAACAACGAATCAATTAAAATCATAGGCTTAATCGAAAAACAACCATATCTTGATATCGCATAAAACAACCATAAGTTGATATTTTGGTGAAAAGGATATTCCAACCTTCATAGTTTAGTAAGAA (double strand) [Left end hyperactive 4671]”, for the setting “T-RL”, the binding signal came to 1.55 fold vs WT.
The same measure, in the same setting: then “ACATTTGTTGATACAACCATAAAATGATAATTACACCCATAAATTGATAATTATCACACCCATAAATTGATATTGCCTCTGATCAAATTGTGAGCGGATAACAATTTAGTCAGACCAGCACCGACAC (double strand) [Right end hyperactive 2695]”, with 1.82 fold vs WT.
With “ACATTTGTTGATACAACCATAATATGATAATTACACCCATAAATTGATAATTATCACACCCATAAATTGATATTGCCTCTGATCATAGTCAGACCAACATTGCTACGACCCGTATTCGCACCGACAC (double strand) [Right end variant 1017]”, under “T-RL, second replicate 1.4722”, the binding signal (log2 fold vs WT) is 1.36.
Consider “ACATTTGTTGATACAACCATAAAATGATAATTACACCCATAAATTGATAATTATCACACCCATAAATTGATATTGCCTCTGATCAGGAATTGTGAGCGGATAACAATTTAGTCAGACGCACCGACAC (double strand) [Right end hyperactive 2693]”, for which, under “T-RL”, the binding signal came out at 2.05 fold vs WT.
Regarding “TGTTGATACAACCATTAAATGGTAATTCCACCCAAATATTGATAATTATCACACCCA (double strand) [Right end ORF3c]”, the binding signal (log2 fold vs WT) (T-RL, second replicate -1.89) was -2.49.
As for “AATGTTGTTGAAACAACCATAAAGTGATAACAACGAATCAATTAAAATCATAGGCTTAATCGAAAAACAACCATATCTTGATATCGCATAAAACAACCATAAGTTGATATTTTGGTGAAAAGGATATTCCAACCTTCATAGTTTAGTAAGAA (double strand) [Left end hyperactive 4668]”, the binding signal (T-RL) amounted to 1.76 fold vs WT.
As for “TTTTGTGTTGAAACAACCATAAAGTGATAACAACGAATCAATTAAAATCATAGGCTTAATCGAAAAACAACCATATCTTGATATCGCATAAAACAACCATAAGTTGATATTTTTGTGAATAGGATATTCCAACCTTCATAGTTTAGTAAGAA (double strand) [Left end hyperactive 4670]”, where the note is “T-RL”, the binding signal came out at 1.67 fold vs WT.
“ACATTTGTTGATACAACCATAAAATGATAATTACACCCATAAATTGATAATTATCACACCCATAAATTGATATTGCCTCTGATCATATTTAATAATTAATTTATATATTTAAGTCAGGCACCGACAC (double strand) [Right end hyperactive 2691]” registered a binding signal (T-RL) of 2.63 fold vs WT.
Still for that read-out and setting: then “AATGTTGTTGATGCAACCATAAAGTGATATTTAATAATTATTTATAATCAGCAACTTAACCACAAAACAACCATATATTGATATCTCACAAAACAACCATAAGTTGATATTTTTGTGAATAGGATATTCCAACCTTCATAGTTTAGTAAGAA (double strand) [Left end hyperactive 4673]”, with 1.53 fold vs WT; and “ACATTTGTTGATACAACCATAAAATGATAATTACACCCATAAATTGATAATTATCACACCCATAAATTGATATTGCCTCTGATCATAATTGTTATCCGCTCACAATTCCAGTCAGACGCACCGACAC (double strand) [Right end hyperactive 2694]”, with 1.89 fold vs WT.
With “TGTGGATACAACCATAAAACGATAATTACACCCATAAATGGATCATTATCACACCCA (double strand) [Right end ORF1b]”, the binding signal (log2 fold vs WT) (T-RL, second replicate) is -2.03.
“ACATTTGTTGATACAACCATAAAATGATAATTACACCCATAAATTGATAATTATCACACCCATAAATTGATATTGCCTCTGTTGGCGCCCGGCCCTCAGGCCCTGCAGTGAGTTCCAGCACCGACAC (double strand) [Right end hyperactive 2699]” registered a binding signal (T-RL) of 1.77 fold vs WT.
Take “ACATTAGTTGATACAACCATAAAATGATAATTACACCCATAAATTGATAATTATCACACCCATAAATTGATATTGCCTCTGATCATAGTCAGACCAACATTGCTACGACCCGTATTCGCACCGACAC (double strand) [Right end variant 1068]”: the binding signal (log2 fold vs WT) (T-RL, second replicate -5.4441) was -6.17.
With “ACATTTGTTGATACAACCATAAAATGATAATTACACCCATAAATTGATAATTATCACACCCATAAATTGATATTGCCTCTTTATGCAGGACGACGTACGCGTTCCATATAAACCTGTGCACCGACAC (double strand) [Right end hyperactive 2696]”, for the setting “T-RL”, the binding signal stood at 1.83 fold vs WT.
For “ACATTTTTTGATACAACCATAAAATGATAATTACACCCATAAATTGATAATTATCACACCCATAAATTGATATTGCCTCTGATCATAGTCAGACCAACATTGCTACGACCCGTATTCGCACCGACAC (double strand) [Right end variant 1066]”, the binding signal (log2 fold vs WT) (T-RL, second replicate -1.9162) is -2.48.
Consider “ACATTTGTTGATACAACCATAAAATGATAATTACACCCATAAATTGATAATTATCACACCCATAAATTGATATTGCCTCTCGCGAGAGGCCGGCAGCCGTCTGGCGTCGGGTGGCGGGCACCGACAC (double strand) [Right end hyperactive 2697]”, for which the binding signal (T-RL) was found to be 2.03 fold vs WT.
“AATGTTGTTGATGCAACCATAAAGTGATATTTAATAATTATTTATAATCAGCAACTGAACCACAAAACAACCATATATTGATATCTCACAAAACAACCATAAGTTGATATTTTTGTGAATCGAGTATTTCAGCAAAACTACTGCAGTAAGAA (double strand) [Left end variant 3311]”: the binding signal (log2 fold vs WT) (T-RL, second replicate -0.9350) is -1.73.
Consider “ACATTTGTTGATACAACCATAAAATGATAATAACACCCATAAATTGATAATTATCACACCCATAAATTGATATTGCCTCTGATCATAGTCAGACCAACATTGCTACGACCCGTATTCGCACCGACAC (double strand) [Right end variant 990]”, for which the binding signal (log2 fold vs WT) (T-RL, second replicate 1.0127) came out at 0.854.
As for “ACATTGGTTGATACAACCATAAAATGATAATTACACCCATAAATTGATAATTATCACACCCATAAATTGATATTGCCTCTGATCATAGTCAGACCAACATTGCTACGACCCGTATTCGCACCGACAC (double strand) [Right end variant 1069]”, under “T-RL, second replicate -6.7160”, the binding signal (log2 fold vs WT) is -6.61.
Take “TTTTGTGTTGAAACAACCATAAAGTGATAACAACGAATCAATTAAAATCATAGGCTTAATCGAAAAACAACCATATCTTGATATCGCACAAAACAACCATAAGTTGATATTTTGGTGAAAAGGATATTCCAACCTTCATAGTTTAGTAAGAA (double strand) [Left end hyperactive 4672]”: the binding signal (T-RL) stood at 1.54 fold vs WT.
